# Measured values from publication PMC5007552.
# Settings: phosphorylation at S486
substance,measurement,value
"SGK3: AZD8055 (mTOR catalytic inhibitor, 0.1 uM, 1 h)",enzymatic_activity,decreases
